One experiment deals with human insulin (human) (UniProt P01308). As to the kind of experiment: polyreactivity ELISA, insulin coated, antibody 10 µg/mL, signal normalised to non-coated well.
The target in experiment [1] is tEGFR (truncated EGFR) on vector-only transduced T cells (Homo sapiens (Human)) (UniProt P00533).
The target of experiment [2] is Copenhagen B5 on cells infected with VVCopenhagen (YFP) virus (Vaccinia virus, Copenhagen strain) (UniProt P21115). As to the kind of experiment: flow cytometry, HT29 cells infected with Copenhagen VV (negative control).
In experiment [3] the target is Western Reserve B5 on cells infected with VVddeGFP Western Reserve virus (Vaccinia virus, Western Reserve strain) (UniProt Q01227). The experiment in a line: flow cytometry, HT29 cells infected with WR VV (negative control).
Experiment [4] has the same target. The experiment in a line: flow cytometry, SKOV3 cells infected with WR VV (negative control).

Regarding Infliximab (antibody), in the experiment with human insulin (human), the Polyreactivity Insulin Score came to 2.9 score.
On to “VV B5 monomer protein (Wyeth Vaccinia strain B5 with C-terminal AVI tag and HIS6 tag) (from UniProt O57254 18-279)”, for which the CAR+ % Parent in experiment [1] was determined as 1.54%.
With human IgG1k isotype control (antibody), the concentration for a half-maximal effect (EC50) was found to be 0.01 nM in experiment [2], 0.02 nM in experiment [3] and 0.01 nM in experiment [4].

The values above are taken from patent US20240309070A1.
